Assay results: patent US10556944B2, “Fab region-binding peptide” (priority 2013, dated 2020)
Where no end group is shown, it is not given here.

Molecular target: T1, anti-TNFα antibody-Fab (IgG-Fab derived from anti-TNFα monoclonal antibody, adalimumab) (Homo sapiens, UniProt P01834+P01857)
T1 construct: cleaving a humanized monoclonal IgG formulation as a starting material into a Fab fragment and an Fc fragment by papain; purchased
Experiment: Biacore 3000 surface plasmon resonance, affinity of SpG-β1 mutants for immobilized IgG-Fab
Assay type: binding
Details: Table 2, Example 3, GST-fused one-domain peptide; for koff / kon: 25° C., pH 7.4; for KA Vs. Wild: fold of wild-type KA

Row | Substance | KA | koff | kon | KA Vs. Wild
1 | K10R/K13T/E15Q/K28R/F30L/D36G/E42V: GST-fused one-domain SpG-β1 mutant, amino acid SEQ ID NO: 69 (TTYKLILNGRTLTGQTTTEAVDAATAERVLKQYANGNGVDGVWTYDDATKTFTVTE; also: GST-fused, end not given here) | 3.3e+06 M⁻¹ | 0.0035 s⁻¹ | 115000 s/M | 8.8
2 | K13S/E19I/F30L: GST-fused one-domain SpG-β1 mutant, amino acid SEQ ID NO: 29 (TTYKLILNGKTLSGETTTIAVDAATAEKVLKQYANDNGVDGEWTYDDATKTFTVTE; also: GST-fused, end not given here) | 2.23e+06 M⁻¹ | – | 137000 s/M | 6.0
3 | K13S/E19V/F30L/Y33F: GST-fused one-domain SpG-β1 mutant, amino acid SEQ ID NO: 81 (TTYKLILNGKTLSGETTTVAVDAATAEKVLKQFANDNGVDGEWTYDDATKTFTVTE; also: GST-fused, end not given here) | 1.54e+06 M⁻¹ | 0.0064 s⁻¹ | 98400 s/M | 4.1
4 | K13T/D22N/A23T/T25S/F30L/A48T: GST-fused one-domain SpG-β1 mutant, amino acid SEQ ID NO: 73 (TTYKLILNGKTLTGETTTEAVNTASAEKVLKQYANDNGVDGEWTYDDTTKTFTVTE; also: GST-fused) | 1.06e+06 M⁻¹ | 0.0098 s⁻¹ | 104000 s/M | 2.8
5 | K13T/E15Q/E19I/E27D/V39I/D47H: GST-fused one-domain SpG-β1 mutant, amino acid SEQ ID NO: 77 (TTYKLILNGKTLTGQTTTIAVDAATADKVFKQYANDNGIDGEWTYDHATKTFTVTE; also: GST-fused) | 1.85e+06 M⁻¹ | 0.0067 s⁻¹ | 124000 s/M | 4.9
6 | K13T/E15Q/E19V/F30L/V39L: GST-fused one-domain SpG-β1 mutant, amino acid SEQ ID NO: 61 (TTYKLILNGKTLTGQTTTVAVDAATAEKVLKQYANDNGLDGEWTYDDATKTFTVTE; also: GST-fused) | 1.42e+06 M⁻¹ | 0.0063 s⁻¹ | 89800 s/M | 3.8
7 | K13T/E15T/E19I/T25M/E27G/F30L/N35Y: GST-fused one-domain SpG-β1 mutant, amino acid SEQ ID NO: 63 (TTYKLILNGKTLTGTTTTIAVDAAMAGKVLKQYAYDNGVDGEWTYDDATKTFTVTE; also: GST-fused) | 1.28e+06 M⁻¹ | 0.0063 s⁻¹ | 80700 s/M | 3.4
8 | K13T/E19I/A23D/V39L: GST-fused one-domain SpG-β1 mutant, amino acid SEQ ID NO: 31 (TTYKLILNGKTLTGETTTIAVDDATAEKVFKQYANDNGLDGEWTYDDATKTFTVTE; also: GST-fused) | 1.36e+06 M⁻¹ | – | 84300 s/M | 3.6
9 | K13T/E19I/A23T/F30L/Y33F/D47N/K50R: GST-fused one-domain SpG-β1 mutant, amino acid SEQ ID NO: 45 (TTYKLILNGKTLTGETTTIAVDTATAEKVLKQFANDNGVDGEWTYDNATRTFTVTE; also: GST-fused) | 2.63e+06 M⁻¹ | 0.0046 s⁻¹ | 120000 s/M | 7.0
10 | K13T/E19I/A23T/T25M/F30L: GST-fused one-domain SpG-β1 mutant, amino acid SEQ ID NO: 49 (TTYKLILNGKTLTGETTTIAVDTAMAEKVLKQYANDNGVDGEWTYDDATKTFTVTE; also: GST-fused) | 1.12e+06 M⁻¹ | 0.0091 s⁻¹ | 102000 s/M | 3.0
11 | K13T/E19I/D22E/A24T/F30L/Y33F/D47G: GST-fused one-domain SpG-β1 mutant, amino acid SEQ ID NO: 79 (TTYKLILNGKTLTGETTTIAVEATTAEKVLKQFANDNGVDGEWTYDGATKTFTVTE; also: GST-fused) | 1.32e+06 M⁻¹ | 0.0053 s⁻¹ | 69500 s/M | 3.5
12 | K13T/E19I/E27D/F30L/K31R: GST-fused one-domain SpG-β1 mutant, amino acid SEQ ID NO: 35 (TTYKLILNGKTLTGETTTIAVDAATADKVLRQYANDNGVDGEWTYDDATKTFTVTE; also: GST-fused) | 2.74e+06 M⁻¹ | – | 150000 s/M | 7.3
13 | K13T/E19I/F30L/D47A/K50E: GST-fused one-domain SpG-β1 mutant, amino acid SEQ ID NO: 65 (TTYKLILNGKTLTGETTTIAVDAATAEKVLKQYANDNGVDGEWTYDAATETFTVTE; also: GST-fused) | 1.14e+06 M⁻¹ | 0.0062 s⁻¹ | 70900 s/M | 3.1
14 | K13T/E19I/F30L/D47N: GST-fused one-domain SpG-β1 mutant, amino acid SEQ ID NO: 43 (TTYKLILNGKTLTGETTTIAVDAATAEKVLKQYANDNGVDGEWTYDNATKTFTVTE; also: GST-fused) | 1.27e+06 M⁻¹ | 0.0073 s⁻¹ | 92600 s/M | 3.4
15 | K13T/E19I/F30L/Y33F/V39I/D47H: GST-fused one-domain SpG-β1 mutant, amino acid SEQ ID NO: 23 (TTYKLILNGKTLTGETTTIAVDAATAEKVLKQFANDNGIDGEWTYDHATKTFTVTE; also: GST-fused) | 2.06e+06 M⁻¹ | 0.0039 s⁻¹ | 79400 s/M | 5.5
16 | K13T/E19I/F30L/Y33F: GST-fused one-domain SpG-β1 mutant, amino acid SEQ ID NO: 47 (TTYKLILNGKTLTGETTTIAVDAATAEKVLKQFANDNGVDGEWTYDDATKTFTVTE; also: GST-fused) | 1.59e+06 M⁻¹ | 0.0067 s⁻¹ | 106000 s/M | 4.3
17 | K13T/E19I/F30L/Y45F/D47Y: GST-fused one-domain SpG-β1 mutant, amino acid SEQ ID NO: 83 (TTYKLILNGKTLTGETTTIAVDAATAEKVLKQYANDNGVDGEWTFDYATKTFTVTE; also: GST-fused) | 1.39e+06 M⁻¹ | 0.007 s⁻¹ | 97700 s/M | 3.7
18 | K13T/E19I/K28I/F30L/N35F: GST-fused one-domain SpG-β1 mutant, amino acid SEQ ID NO: 57 (TTYKLILNGKTLTGETTTIAVDAATAEIVLKQYAFDNGVDGEWTYDDATKTFTVTE; also: GST-fused) | 1.4e+06 M⁻¹ | 0.0063 s⁻¹ | 88000 s/M | 3.7
19 | K13T/E19I/K28I/F30L/Y33F/E42Q/D47Y: GST-fused one-domain SpG-β1 mutant, amino acid SEQ ID NO: 59 (TTYKLILNGKTLTGETTTIAVDAATAEIVLKQFANDNGVDGQWTYDYATKTFTVTE; also: GST-fused) | 1.45e+06 M⁻¹ | 0.0063 s⁻¹ | 91000 s/M | 3.9
20 | K13T/E19I/K28N/E42K: GST-fused one-domain SpG-β1 mutant, amino acid SEQ ID NO: 39 (TTYKLILNGKTLTGETTTIAVDAATAENVFKQYANDNGVDGKWTYDDATKTFTVTE; also: GST-fused) | 1.1e+06 M⁻¹ | 0.0124 s⁻¹ | 137000 s/M | 3.0
21 | K13T/E19I/K28N/F30L/D40V: GST-fused one-domain SpG-β1 mutant, amino acid SEQ ID NO: 33 (TTYKLILNGKTLTGETTTIAVDAATAENVLKQYANDNGVVGEWTYDDATKTFTVTE; also: GST-fused) | 1.43e+06 M⁻¹ | – | 108000 s/M | 3.8
22 | K13T/E19I/K28N/F30L/Y33F: GST-fused one-domain SpG-β1 mutant, amino acid SEQ ID NO: 53 (TTYKLILNGKTLTGETTTIAVDAATAENVLKQFANDNGVDGEWTYDDATKTFTVTE; also: GST-fused) | 1.44e+06 M⁻¹ | 0.0061 s⁻¹ | 88000 s/M | 3.9
23 | K13T/E19I/K28R/F30L/Y33F: GST-fused one-domain SpG-β1 mutant, amino acid SEQ ID NO: 27 (TTYKLILNGKTLTGETTTIAVDAATAERVLKQFANDNGVDGEWTYDDATKTFTVTE; also: GST-fused) | 2.02e+06 M⁻¹ | – | 85500 s/M | 5.4
24 | K13T/E19I/V21D/K28I/F30L/K31R/D47H: GST-fused one-domain SpG-β1 mutant, amino acid SEQ ID NO: 75 (TTYKLILNGKTLTGETTTIADDAATAEIVLRQYANDNGVDGEWTYDHATKTFTVTE; also: GST-fused) | 1.39e+06 M⁻¹ | 0.0068 s⁻¹ | 95000 s/M | 3.7
25 | K13T/E19I/V21D/T25M/F30L/Y33F/N35F/D47A: GST-fused one-domain SpG-β1 mutant, amino acid SEQ ID NO: 55 (TTYKLILNGKTLTGETTTIADDAAMAEKVLKQFAFDNGVDGEWTYDAATKTFTVTE; also: GST-fused) | 3.47e+06 M⁻¹ | 0.003 s⁻¹ | 104000 s/M | 9.3
26 | K13T/E19I/V21N/K28I/F30L: GST-fused one-domain SpG-β1 mutant, amino acid SEQ ID NO: 37 (TTYKLILNGKTLTGETTTIANDAATAEIVLKQYANDNGVDGEWTYDDATKTFTVTE; also: GST-fused) | 3.01e+06 M⁻¹ | 0.0071 s⁻¹ | 214000 s/M | 8.1
